Broadly, the Kd is a measure of binding affinity in units of concentration. Low readings indicate a tighter complex, high ones a looser complex.

The target of this test is minke whale ACE2, mFc-tagged (minke whale). Kind of test: SPR. (SPR reads the build-up and loss of mass on a sensor chip optically.)

In turn, “SARS-CoV-2 receptor-binding domain (RBD), prototype (from UniProt P0DTC2) (domain or fragment)” returned a dissociation constant Kd of 0.155 µM.

The values above are taken from PMC9517163.
